This test concerns the target T1, myc-tagged mouse Ccr1 Y18F mutant (mouse) (UniProt P51675).
T1 sequence: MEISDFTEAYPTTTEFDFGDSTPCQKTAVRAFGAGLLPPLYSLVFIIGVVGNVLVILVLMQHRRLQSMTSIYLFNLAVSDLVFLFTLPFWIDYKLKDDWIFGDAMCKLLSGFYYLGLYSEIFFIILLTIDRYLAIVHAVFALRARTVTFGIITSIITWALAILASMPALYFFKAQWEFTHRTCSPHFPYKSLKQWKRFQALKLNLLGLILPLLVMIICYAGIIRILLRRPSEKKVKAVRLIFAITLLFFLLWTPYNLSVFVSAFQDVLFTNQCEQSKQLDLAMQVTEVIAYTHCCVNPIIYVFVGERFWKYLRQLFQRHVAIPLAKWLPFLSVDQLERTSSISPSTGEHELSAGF

Molecule recombinant mouse Ccl9/10 (ligand) registered an internalisation: cell surface receptor left (MFI in % of buffer alone) after 100 nM chemokine, FACS, L1.2 cells (% cell surface receptor) of 20.

B1: recombinant mouse Ccl3 (ligand)
chain: APYGADTPTACCFSYSRKIPRQFIVDYFETSSLCSQPGVIFLTKRNRQICADSKETWVQEYITDLELNA
The molecule B1 showed an internalisation: cell surface receptor left (MFI in % of buffer alone) after 100 nM chemokine, FACS, L1.2 cells (% cell surface receptor) of 35.

These data come from paper PMC7949164.
